Assay results: publication PMC7399497, “The Dual PDZ Domain from Postsynaptic Density Protein 95 Forms a Scaffold with Peptide Ligand” (Biophysical Journal, 2020)

Experiments:
Assay in all cases: ITC; 5 mM RRESEI in the syringe, PDZ1-2, PDZ1 or PDZ2 in the cell at nominally 0.13 mM; 25°C; 20 mM Tris-HCl, 150 mM NaCl pH 8.5; single class of sites; Kd and N could not be refined independently
Settings in all cases: both partners purified
[1] = biological target: T1, PSD-95 PDZ1-2 (dual PDZ domain of postsynaptic density protein 95) (human, UniProt P78352 55-249)
T1 construct: Gly-Pro left at the N-terminus after HRV 3C cleavage of the tag; PSD-95 (disks large homolog 4, SAP-90), human, residues 55-249 of UniProt P78352 (98-292 of P78352-2); PDZ1, linker and PDZ2; No Cys residues in the construct; also called apo-PDZ1-2; PDZ1-2 double domain; source: E. coli BL21(DE3), purified (Ni-NTA, HRV 3C tag cleavage, negative Ni-NTA, Superdex 200 SEC); not shown: His6, …

PSD-95 PDZ1 domain = biological target: T2, PSD-95 PDZ1 domain (human, UniProt P78352 55-152)
T2 construct: Gly-Pro left at the N-terminus after HRV 3C cleavage of the tag; PSD-95, human, PDZ1, residues 55-152 of UniProt P78352 (98-195 of P78352-2); Glutathione was not used in the purification of the single domains; source: E. coli BL21(DE3), purified (Ni-NTA, HRV 3C tag cleavage, negative Ni-NTA, Superdex 200 SEC); not shown: His6, N-terminal, cleaved

PSD-95 PDZ2 domain = biological target: T3, PSD-95 PDZ2 domain (human, UniProt P78352 154-249)
T3 construct: Gly-Pro left at the N-terminus after HRV 3C cleavage of the tag; PSD-95, human, PDZ2, residues 154-249 of UniProt P78352 (197-292 of P78352-2); Glutathione was not used in the purification of the single domains; source: E. coli BL21(DE3), purified (Ni-NTA, HRV 3C tag cleavage, negative Ni-NTA, Superdex 200 SEC); not shown: His6, N-terminal, cleaved
T3 sequence (P78352 other isoform, or with tags, fused parts or gaps): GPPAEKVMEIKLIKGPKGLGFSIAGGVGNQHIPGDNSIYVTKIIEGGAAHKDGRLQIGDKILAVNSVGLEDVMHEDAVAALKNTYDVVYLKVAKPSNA

T1 sequence (P78352 other isoform, or with tags, fused parts or gaps): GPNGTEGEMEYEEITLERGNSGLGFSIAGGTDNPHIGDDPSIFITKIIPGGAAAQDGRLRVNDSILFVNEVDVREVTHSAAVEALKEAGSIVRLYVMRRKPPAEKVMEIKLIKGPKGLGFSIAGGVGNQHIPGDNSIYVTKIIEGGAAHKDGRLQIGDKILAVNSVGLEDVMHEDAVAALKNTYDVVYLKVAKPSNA
T2 sequence (P78352 other isoform, or with tags, fused parts or gaps): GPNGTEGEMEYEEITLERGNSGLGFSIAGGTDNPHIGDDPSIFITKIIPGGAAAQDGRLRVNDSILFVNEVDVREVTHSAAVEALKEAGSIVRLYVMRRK

B1: RRESEI peptide (last six residues, 422-427, of Kir2.1) (peptide)
peptide: RRESEI
notes: C-terminal six residues (422-427) of the inwardly rectifying potassium channel Kir2.1; also called RRESEI ligand; ligand peptide; source: synthetic peptide, 98% purity; bought: Peptide Protein Research
Question: Which results are given for B1?
Answer: Kd [1]: 90 ± 9 µM; stoichiometry N [1]: 0.2 ± 0.07; Kd (PSD-95 PDZ1 domain): 6 ± 6 µM; stoichiometry N (PSD-95 PDZ1 domain): 0.61 ± 0.08; Kd (PSD-95 PDZ2 domain): 60 ± 2 µM; stoichiometry N (PSD-95 PDZ2 domain): 0.19 ± 0.06
